# Test results as given in the supplement of paper PMC11908140.
# B1: library; numbered along this chain (parent)
# chain: MRKPRAAVGSGHRKQAASQEGRQKHAKNNSQAKPSACDGLARQPEEVVLQASVSSYHLFRDVAEVTAFRGSLLSWYDQEKRDLPWRRRAEDEMDLDRRAYAVWVSEVMLQQTQVATVINYYTGWMQKWPTLQDLASASLEEVNQLWAGLGYYSRGRRLQEGARKVVEELGGHMPRTAETLQQLLPGVGRYTAGAIASIAFGQATGVVDGNVARVLCRVRAIGADPSSTLVSQQLWGLAQQLVDPARPGDFNQAAMELGATVCTPQRPLCSQCPVESLCRARQRVEQEQLLASGSLSGSPDVEECAPNTGQCHLCLPPSEPWDQTLGVVNFPRKASRKPPREESSATCVLEQPGALGAQILLVQRPNSGLLAGLWEFPSVTWEPSEQLQRKALLQELQRWAGPLPATHLRHLGEVVHTFSHIKLTYQVYGLALEGQTPVTTVPPGARWLTQEEFHTAAVSTAMKKVFRVYQGQQPGTCMGSKRSQVSSPCSRKKPRMGQQVLDNFFRSHISTDAHSLNSAAQ
# Variants of: B1
# Test: 8OG:A repair function score (normalized; synonymous = 0, nonsense = -1) (normalized log-likelihood score); higher = more repair activity (WT-like)
# Details: with 8OG:A DNA repair reporter (GFP) in HEK-293 MUTYH KO cells
# Description: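 Saturation mutagenesis (NNN codon scan) of the MUTYH cDNA (521-aa nuclear isoform NM_001048174.1 / NP_001041639), stably expressed under doxycycline induction in HEK-293 MUTYH knockout cells. Cells were co-transfected with an 8OG:A-bearing GFP repair reporter plus mCherry and sorted 72 h later into GFP+ and GFP− bins, three replicates per tile. The Rosace log2 enrichment (GFP+ vs GFP−) was converted per tile to a normalized function score with synonymous variants centered at 0 and nonsense variants (codons 1-471) at -1; low-abundance variants were removed.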
row,Variant,8OG:A repair function score
1,V211E,-0.951
2,M125F,-0.273
3,Q470A,-0.0419
4,C278F,-1.07
5,W374V,-0.874
6,W374L,-0.36
7,T176Y,-0.16
8,L229N,-0.25
9,L229R,0.134
10,Q282D,-0.125
11,E413V,-0.059
12,E413L,-0.056
13,G70T,-0.693
14,G309D,-0.000739
15,A305V,-0.0191
16,Q472C,-0.0129
17,Q472N,0.0284
18,Y56P,-0.0566
19,E375F,-0.673
20,Q286H,-0.0639
21,M255W,-1.04
22,M255G,-1.02
23,M255E,-0.876
24,M255Y,-1.02

row,Variant,8OG:A repair function score
1,L58W,0.00529
2,V441C,-0.261
3,S153Q,-0.127
4,N210T,-1.03
5,N210E,-0.997
6,T406E,-0.17
7,D502L,-0.0337
8,D502Y,-0.0488
9,D502Q,-0.0749
10,Q358S,-0.152
11,Q358G,-0.334
12,Q358E,-0.0404
13,P244W,-0.457
14,V207W,-0.834
15,R409D,-0.0632
16,E160R,-0.136
17,M496S,-0.0675
18,M496Q,-0.106
19,D208L,-1.03
20,V114T,-0.141
21,V114P,-1.09
22,L396M,-0.451
23,C477N,0.0283
24,S518D,-0.00955

row,Variant,8OG:A repair function score
1,P267E,-0.836
2,P267A,-0.131
3,G201R,-0.0601
4,A203D,-0.191
5,L257F,-0.285
6,E285S,0.0138
7,S318G,-0.0532
8,S318V,-0.155
9,S318W,0.126
10,Q239H,0.289
11,L430N,-0.276
12,L430H,-0.604
13,V242A,-0.526
14,Q498D,0.00936
15,P365C,0.0287
16,C262N,-1.19
17,C262K,-1.3
18,C262V,-1.26
19,W128H,-0.948
20,I195P,-1.04
21,I195K,-1.05
22,I195A,-0.996
23,R495L,0.017
24,P306N,-0.00787

row,Variant,8OG:A repair function score
1,G150I,-1.78
2,C216M,-0.646
3,E275P,-0.152
4,D61R,-0.037
5,D61H,-0.208
6,D512T,-0.0649
7,A192L,-1.11
8,R219H,-0.593
9,P129R,-0.477
10,P129G,-0.263
11,V327R,-0.583
12,E319T,0.123
13,Q182I,-0.0148
14,Q435V,-0.157
15,R283P,-0.625
16,H416R,-0.158
17,H416F,-0.448
18,E385M,0.0941
19,G293I,-0.0531
20,G293Y,-0.0734
21,P317K,-0.197
22,A177N,-0.0568
23,V284Y,-0.0139
24,S54V,-0.0294

row,Variant,8OG:A repair function score
1,Y190W,-0.479
2,K164G,-0.431
3,A391F,0.112
4,A371I,-0.776
5,G155S,-0.0824
6,G155W,-0.265
7,S343F,-0.0296
8,W75C,-1.25
9,A135E,-0.996
10,A135I,-0.611
11,S515E,0.0198
12,P84T,-0.154
13,P84A,-0.138
14,D300F,-0.255
15,G475W,-0.0871
16,L234K,-0.869
17,V468Y,-0.025
18,I359Y,-0.266
19,V230H,-0.63
20,P474G,-0.00334
21,P474E,0.0263
22,I118A,-0.0372
23,A220Q,-0.691
24,A220Y,-0.75

row,Variant,8OG:A repair function score
1,L241P,-0.994
2,L241E,-0.98
3,L241D,-0.924
4,L277W,-0.00135
5,R266N,-0.0656
6,S335A,0.0331
7,T204I,0.0296
8,T204Q,-0.045
9,T204L,-0.0721
10,Q521F,-0.0187
11,F376M,-0.13
12,F376K,-0.92
13,F376T,-0.441
14,R446S,-0.255
15,L423E,-0.289
16,L423D,-0.261
17,L423N,-0.091
18,P331W,-0.233
19,Q271E,-0.00693
20,N329D,-0.288
21,N329T,-0.361
22,T346F,-0.247
23,K337S,-0.109
24,K337E,-0.0878

row,Variant,8OG:A repair function score
1,A431I,0.0332
2,K422F,-0.584
3,L268M,0.0171
4,L268P,-0.285
5,V166K,-0.116
6,L169K,-0.189
7,F68W,-0.369
8,D322M,0.0738
9,E90G,0.00689
10,E90S,-0.0214
11,E90P,-0.164
12,E178Y,0.00398
13,E178C,-0.0388
14,P299C,-0.0402
15,P299Q,-0.00604
16,P299Y,-0.00692
17,G193A,-0.0458
18,Y121S,-0.866
19,N307H,-0.0535
20,N307W,-0.0672
21,N307F,-0.00176
22,H420Y,-0.672
23,R69Y,-0.421
24,R69I,-3.35

row,Variant,8OG:A repair function score
1,Q78W,-0.0301
2,L501H,0.0143
3,G222P,-0.731
4,Q50V,-0.0513
5,R98N,-0.122
6,V102H,-2.8
7,R189H,-0.228
8,R189S,-0.0964
9,F418D,-1.06
10,F418I,0.255
11,F418G,-0.636
12,C272L,-1.26
13,R88M,-0.0202
14,R88Q,-0.0232
15,R88S,-0.00167
16,D96H,-0.132
17,D96E,-0.143
18,A212R,0.0203
19,Q450K,0.354
20,Q450D,-0.113
21,P320Y,-0.0806
22,P320I,-0.0716
23,P320N,-0.0442
24,Q386P,-0.219

row,Variant,8OG:A repair function score
1,V485T,0.00314
2,M93C,0.00101
3,A445T,-0.288
4,A162H,-1.08
5,G297T,0.0201
6,T66H,-0.091
7,Q351C,-0.0209
8,L149E,-1.24
9,L183S,0.0487
10,V53Q,-0.0248
11,A245C,-0.113
12,A245S,0.0557
13,L184F,-0.304
14,I221M,-0.523
15,Y76D,-1.25
16,L180W,-0.713
17,L180V,-0.497
18,N119Q,-0.00304
19,N119C,-0.0452
20,V165L,-0.0671
21,H312R,-0.0802
22,Q202A,0.00201
23,Q202V,-0.0323
24,A101W,-0.762

row,Variant,8OG:A repair function score
1,L131G,-0.424
2,E451S,-0.131
3,E451N,0.26
4,L295R,-0.0249
5,S296D,0.0216
6,L325Q,-0.141
7,G497R,-0.0166
8,G497I,-0.0179
9,R163W,-0.296
10,Q252I,-0.942
11,M173F,-0.014
12,F504D,0.0276
13,F504Y,0.0257
14,E395I,-0.133
15,E395G,-0.277
16,E395H,-0.214
17,R154A,-0.88
18,R154G,-1.12
19,R154P,-1.06
20,Q43P,0.054
21,G171A,-0.18
22,A99M,-0.378
23,Y428F,-0.153
24,E168W,-0.201

row,Variant,8OG:A repair function score
1,Q159D,-0.824
2,P377L,-0.733
3,G258L,-1.12
4,G429P,-1.12
5,P339E,-0.374
6,T439I,0.0704
7,R336I,-0.113
8,E256A,-0.756
9,Q499W,-0.0171
10,L448A,-0.105
11,G353F,-0.0929
12,H514V,0.0053
13,S55G,0.00135
14,D91E,-0.0053
15,T116M,-0.441
16,S227I,-0.232
17,S378C,0.0237
18,V415H,-0.115
19,V415N,-0.11
20,R86H,-1.85
21,V500K,-0.0181
22,L139T,0.00391
23,R279F,-0.277
24,Q397A,-0.314

row,Variant,8OG:A repair function score
1,H454C,0.0357
2,A354G,-0.0387
3,S292I,0.000296
4,S136G,0.03
5,V206D,-1.02
6,G186Q,-0.401
7,E302W,-0.215
8,T449R,0.00957
9,Q265E,-0.243
10,Q265Y,-0.00929
11,W381L,0.07
12,R281F,-0.126
13,Q113F,-0.237
14,T436F,-0.0267
15,L83T,-0.104
16,S197D,-1.04
17,S483D,0.0208
18,S483F,0.0169
19,V427I,-0.18
20,S510Q,-0.053
21,R332P,-0.191
22,A51K,0.124
23,A345D,-0.542
24,A345E,-0.567

row,Variant,8OG:A repair function score
1,A345N,-0.356
2,V214T,-0.495
3,L355W,-0.0689
4,H407A,0.245
5,H407T,-0.107
6,A6S,-0.117
7,S52W,-0.00265
8,S52E,-0.00064
9,A223G,-0.111
10,R42M,-0.196
11,P247L,-1.02
12,T228A,0.0743
13,H172I,-0.0329
14,E45K,-0.0451
15,A36M,-0.076
16,A36P,0.00994
17,T179L,0.0629
18,K493P,0.0123
19,R87N,-0.000681
20,R87C,-0.0638
21,G412Y,-0.721
22,E452Q,-0.335
23,A456E,-0.405
24,A456Q,-0.514

row,Variant,8OG:A repair function score
1,G123K,0.00116
2,G123W,-0.322
3,V47C,0.0227
4,V458N,-0.786
5,V458S,-0.192
6,A520Q,0.00885
7,T130E,-0.171
8,T130Y,-0.392
9,S480T,0.0286
10,F330T,-0.478
11,F330D,-1.15
12,A194Q,-0.577
13,A194N,-0.737
14,A238M,0.0352
15,Y469F,-0.0628
16,Y469G,-0.451
17,A334F,-0.0391
18,A334N,0.0217
19,S490F,-0.0204
20,E141C,-0.219
21,A196F,-0.939
22,K127L,-0.0156
